Results as given in PMC5446404, “Fortilin binds IRE1α and prevents ER stress from signaling apoptotic cell death” (Nature Communications, 2017).

Legend:
bovine serum albumin = molecular target: T1, bovine serum albumin (bovine, UniProt P02769 25-607); experiment: BLI; BLItz (ForteBio); biotinylated fortilin immobilised on streptavidin-coated biosensors (25 μg/mL, 600 s), buffer exchange in PBS; analyte at various concentrations for 180 s, dissociation in PBS for 300 s; three independent experiments; conditions: both partners purified
T1 construct: serum albumin, bovine; negative control of the biolayer interferometry; also called BSA; source: bought: Sigma-Aldrich

GST-IRE1α-C (aa 468-977) = GST-IRE1α-C (aa 468-977) (human, UniProt O75460 468-977); experiment: cell-based or functional assay
Chain of GST-IRE1α-C (aa 468-977) (O75460 468-977): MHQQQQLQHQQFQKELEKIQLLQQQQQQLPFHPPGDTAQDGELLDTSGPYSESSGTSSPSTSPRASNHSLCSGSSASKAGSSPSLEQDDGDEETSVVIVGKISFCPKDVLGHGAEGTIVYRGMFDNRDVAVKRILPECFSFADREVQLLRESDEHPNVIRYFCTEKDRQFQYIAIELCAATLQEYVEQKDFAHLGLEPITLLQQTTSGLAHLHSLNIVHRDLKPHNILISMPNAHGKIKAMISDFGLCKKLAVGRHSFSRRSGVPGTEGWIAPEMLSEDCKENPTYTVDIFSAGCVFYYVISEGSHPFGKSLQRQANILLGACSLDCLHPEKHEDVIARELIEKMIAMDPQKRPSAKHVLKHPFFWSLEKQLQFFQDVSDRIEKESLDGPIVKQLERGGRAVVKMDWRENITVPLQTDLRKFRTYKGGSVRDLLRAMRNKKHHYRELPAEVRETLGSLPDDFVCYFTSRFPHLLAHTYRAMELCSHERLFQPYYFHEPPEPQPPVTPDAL

T1 sequence (P02769 25-607): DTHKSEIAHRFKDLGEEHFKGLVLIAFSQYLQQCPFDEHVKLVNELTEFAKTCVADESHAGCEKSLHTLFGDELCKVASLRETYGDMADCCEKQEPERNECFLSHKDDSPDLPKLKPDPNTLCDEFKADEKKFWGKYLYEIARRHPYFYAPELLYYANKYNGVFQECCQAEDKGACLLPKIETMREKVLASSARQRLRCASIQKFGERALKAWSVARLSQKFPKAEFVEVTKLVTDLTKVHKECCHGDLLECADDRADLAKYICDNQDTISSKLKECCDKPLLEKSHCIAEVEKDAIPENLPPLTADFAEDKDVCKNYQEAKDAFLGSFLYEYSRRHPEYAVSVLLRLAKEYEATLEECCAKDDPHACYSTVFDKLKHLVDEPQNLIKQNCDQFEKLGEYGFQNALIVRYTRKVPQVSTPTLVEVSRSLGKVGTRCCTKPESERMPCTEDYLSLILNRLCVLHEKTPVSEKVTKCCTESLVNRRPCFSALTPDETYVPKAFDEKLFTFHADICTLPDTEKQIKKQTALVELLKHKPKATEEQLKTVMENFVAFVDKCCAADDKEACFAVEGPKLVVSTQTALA

B1: recombinant human fortilin (Strep-tag II), biotinylated (natural protein, UniProt P13693 1-172, looked up)
chain: MIIYRDLISHDEMFSDIYKIREIADGLCLEVEGKMVSRTEGNIDDSLIGGNASAEGPEGEGTESTVITGVDIVMNHHLQETSFTKEAYKKYIKDYMKSIKGKLEEQRPERVKPFMTGAAEQIKHILANFKNYQFFIGENMNPDGMVALLDYREDGVTPYMIFFKDGLEMEKC
modifications: biotinylated (sites not given)
notes: fortilin (translationally controlled tumor protein), human, described as a 172-amino-acid polypeptide; cDNA encoding human fortilin cloned into pESG-IBA5; Biotinylated for BLI; also called translationally controlled tumor protein; Strep-tagged fortilin; source: 293T cells stably expressing it, purified (Strep-Tactin-Superflow resin)
Question: How did the Kd (bovine serum albumin) turn out when B1 was run?
Answer: 1050 µM

Question: And the “in vitro IRE1α kinase activity: incorporation of γ-33P from [γ-33P]ATP into myelin basic protein; IC50 of fortilin” value (GST-IRE1α-C (aa 468-977))?
Answer: 0.77 µM
